Read-outs that look alike come from different tables or passages of the source.
Tests used:
Recombinant human IL-2 [1] = biological target: T1, Recombinant human IL-2 (human, UniProt P60568 21-153); assay: listed for comparison in the SPR table; method for this antibody not described
Mouse IL-2 [2] = biological target: T2, Mouse IL-2 (mouse, UniProt P04351 21-169); assay: listed for comparison in the SPR species cross-reactivity table
T2 sequence (looked up): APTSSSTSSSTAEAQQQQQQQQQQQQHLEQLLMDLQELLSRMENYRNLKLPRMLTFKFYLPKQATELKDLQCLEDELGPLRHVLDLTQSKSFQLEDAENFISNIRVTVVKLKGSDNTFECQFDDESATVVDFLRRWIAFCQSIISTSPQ

Recombinant human IL-2 [3] = biological target: T1, Recombinant human IL-2; assay: cell-based or functional assay
Recombinant human IL-2 [4] = biological target: T1, Recombinant human IL-2; assay: cell-based or functional assay; remark: listed apart in the source
Mouse IL-2 [5] = biological target: T2, Mouse IL-2; assay: SPR (Biacore 4000), IgG captured on anti-human IgG Fc, IL-2 30 nM to 1 nM; affinity estimate
Description: (§1) Antibody affinities were measured by SPR using the Biacore 4000 with a standard capture methodology. Briefly, anti-human IgG (Fc specific) from an anti-human antibody capture kit (Biacore) was immobilized onto spots 1, 2, 4, and 5 of all four flow cells of a CM-5 sensor chip by amine coupling according to the manufacturer's instructions. Running buffer was HBS-EP+ with 1% BSA. […] Data were analyzed using the Biacore 4000 Evaluation software.
(§2) These sequences were imported into vector NTI® (Lifetech) and aligned using the alignx tool.

Rabbit IL-2 = biological target: T3, Rabbit IL-2 (rabbit, UniProt O77620 21-153, limits assumed); assay: as above
T3 sequence (looked up): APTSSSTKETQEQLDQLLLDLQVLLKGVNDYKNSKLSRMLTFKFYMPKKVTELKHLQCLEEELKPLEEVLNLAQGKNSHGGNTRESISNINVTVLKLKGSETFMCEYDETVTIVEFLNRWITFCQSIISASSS
Description: as §1, §2

Recombinant human IL-2 [6] = biological target: T1, Recombinant human IL-2; assay: cell-based or functional assay; remark: listed apart in the source
CHOk1-IL2Ralpha = biological target: T4, CHOk1-IL2Ralpha; assay: flow cytometry, IgG binding (MFI); antibody titrated on CHOk1-IL2Ralpha cells without IL2
T4 construct: clone number not given; also called CHO/Rα; CHO/IL-2 Rα
T4 chain: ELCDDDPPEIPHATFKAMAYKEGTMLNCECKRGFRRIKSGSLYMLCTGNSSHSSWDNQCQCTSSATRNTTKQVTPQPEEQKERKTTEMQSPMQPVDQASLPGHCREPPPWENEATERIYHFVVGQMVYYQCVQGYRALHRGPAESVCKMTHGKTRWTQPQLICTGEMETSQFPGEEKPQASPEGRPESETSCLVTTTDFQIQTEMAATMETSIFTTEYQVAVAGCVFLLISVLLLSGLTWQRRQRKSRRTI
Description: (§3) After phage-derived antibody fragments were reformatted into full-length human IgGs, the purified antibodies were screened on CHO/Rα, CHO/Rβ, CHO/Rβγ, and parental CHO-K1 cells grown and stained as described above. […] This was allowed to incubate at 4° C. for 1 to 1.5 hours. Bound antibody was detected by the addition of anti-human heavy chain and light chain (Jackson Immuno Research #109-136-088) at 1:1000 and incubating at 4° C. for 30 minutes to 1 hour. Samples were analyzed using BD FACs Canto flow cytometer.

Recombinant human IL-2 [7] = biological target: T1, Recombinant human IL-2; assay: cell-based or functional assay; remark: listed apart in the source
Recombinant human IL-2 [8] = biological target: T1, Recombinant human IL-2; assay: SPR (Biacore 4000), IgG captured on anti-human IgG Fc, rhIL-2 0.11-10 nM
Description: as §1

Recombinant human IL-2 [9] = biological target: T1, Recombinant human IL-2; assay: cell-based or functional assay; remark: listed apart in the source
Recombinant human IL-2 [10] = biological target: T1, Recombinant human IL-2; assay: cell-based or functional assay; remark: listed apart in the source
Rat IL-2 [11] = biological target: T5, Rat IL-2 (rat, UniProt P17108 21-155); assay: SPR (Biacore 4000), IgG captured on anti-human Fc, IL-2 injected
T5 sequence (looked up): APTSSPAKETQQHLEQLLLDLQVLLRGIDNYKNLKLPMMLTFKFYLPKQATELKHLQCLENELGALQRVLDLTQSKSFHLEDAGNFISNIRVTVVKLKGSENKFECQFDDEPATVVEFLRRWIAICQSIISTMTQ

Mouse IL-2 [12] = biological target: T2, Mouse IL-2; assay: as above
Rat IL-2 [13] = biological target: T5, Rat IL-2; assay: SPR (Biacore 4000), IgG captured on anti-human IgG Fc, IL-2 30 nM to 1 nM; affinity estimate
Description: as §1, §2

[14] = biological target: T6, human IL-2 Rβγ (IL-2 Rβ and γc) on cells (human, UniProt P14784 27-551; P31785 23-369); assay: flow cytometry, IgG binding (MFI); antibody titrated on CHOk1-IL2Rbeta-gamma (20-21) cells without IL2
T6 construct: whole, on cells; on CD25-depleted human primary NK cells in the pSTAT5 assay; also called CHO/Rβγ; CHO/IL-2 Rβγ (#20-21)
T6 sequence (looked up) 1: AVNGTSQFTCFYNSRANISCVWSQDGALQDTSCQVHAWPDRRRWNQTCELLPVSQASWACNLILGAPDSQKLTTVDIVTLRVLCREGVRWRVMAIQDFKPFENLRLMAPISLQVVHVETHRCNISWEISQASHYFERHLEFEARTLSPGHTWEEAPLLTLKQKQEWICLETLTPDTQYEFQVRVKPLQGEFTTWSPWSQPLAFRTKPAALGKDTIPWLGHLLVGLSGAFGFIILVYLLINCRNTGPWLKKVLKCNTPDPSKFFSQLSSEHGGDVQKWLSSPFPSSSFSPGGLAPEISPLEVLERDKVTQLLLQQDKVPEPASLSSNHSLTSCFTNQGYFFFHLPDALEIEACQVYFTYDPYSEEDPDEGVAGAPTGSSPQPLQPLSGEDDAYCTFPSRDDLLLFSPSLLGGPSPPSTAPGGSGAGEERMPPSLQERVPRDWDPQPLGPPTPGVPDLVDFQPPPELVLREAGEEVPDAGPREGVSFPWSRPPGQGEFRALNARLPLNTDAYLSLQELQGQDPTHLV
T6 sequence (looked up) 2: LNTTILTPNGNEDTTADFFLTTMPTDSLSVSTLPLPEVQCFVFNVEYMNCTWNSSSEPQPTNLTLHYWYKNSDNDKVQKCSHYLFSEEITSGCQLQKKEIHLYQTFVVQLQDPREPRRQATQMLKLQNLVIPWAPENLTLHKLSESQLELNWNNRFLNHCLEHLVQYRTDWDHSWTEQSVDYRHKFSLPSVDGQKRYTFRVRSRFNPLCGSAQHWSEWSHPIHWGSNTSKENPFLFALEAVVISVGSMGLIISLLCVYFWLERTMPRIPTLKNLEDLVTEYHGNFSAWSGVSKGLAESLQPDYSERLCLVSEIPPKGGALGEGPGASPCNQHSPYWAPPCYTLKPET
Description: as §3

Molecule | Fold EC50 shift of IL-2-induced proliferation, BaF3/IL-2 HuRβγ (Recombinant human IL-2 [4]) | Fold EC50 shift of IL-2-induced proliferation, NK92 (huRαβγ) (Recombinant human IL-2 [4]) | Ratio (huRαβγ/Rβγ) of fold EC50 shifts, proliferation (Recombinant human IL-2 [4]) | Kd (Mouse IL-2 [5]) | Kd (Rabbit IL-2) | EC50 of IL-2-induced pSTAT5a,b in CD25-depleted human primary NK cells with 100 nM antibody (Recombinant human IL-2 [6]) | EC50 of IL-2-induced pSTAT5a,b in NK-92 cells with 100 nM antibody (Recombinant human IL-2 [6]) | EC50 of IL-2-induced pSTAT5a,b in mouse primary NK cells with 100 nM antibody (Recombinant human IL-2 [6]) | binding result (CHOk1-IL2Ralpha) | Fold EC50 shift of IL-2-induced proliferation, CTLL-2 (muRαβγ) (Recombinant human IL-2 [7]) | Kd (Recombinant human IL-2 [8]) | koff (Recombinant human IL-2 [8]) | kon (Recombinant human IL-2 [8]) | pSTAT5a,b Ratio of EC50s (Rαβγ/Rβγ), human cells (Recombinant human IL-2 [9]) | pSTAT5a,b fold EC50 shift, Human Primary NK cells (huRβγ) (Recombinant human IL-2 [9]) | pSTAT5a,b fold EC50 shift, NK92 (huRαβγ) (Recombinant human IL-2 [9]) | pSTAT5a,b Ratio of EC50s (Rαβγ/Rβγ), murine cells (Recombinant human IL-2 [10]) | pSTAT5a,b fold EC50 shift, CTLL-2 (muRαβγ) (Recombinant human IL-2 [10]) | pSTAT5a,b fold EC50 shift, Mouse Primary NK cells (muβγ) (Recombinant human IL-2 [10]) | Kd (Rat IL-2 [13]) | also measured
MAB602 (antibody) | – | – | – | – | – | – | – | – | – | – | – | – | – | – | – | – | – | – | – | – | Kd (Recombinant human IL-2 [1]): 0.12 nM; Kd (Mouse IL-2 [2]): 10 nM; EC50 of IL-2-induced pSTAT5a,b in NK-92 cells with 100 nM antibody (Recombinant human IL-2 [3]): 900 pM; EC50 of IL-2-induced pSTAT5a,b in mouse primary NK cells with 100 nM antibody (Recombinant human IL-2 [3]): 361 pM
XPA.92.019 (antibody, V domains shown, Tested as purified full-length human IgG; also called mAb19) VH: EVQLVESGGGLVQPGRSLRLSCAASGFTFSYYGMHWVRQAPGKGLEWVADISNDGSNKYYADSVKGRFTISRDNSKTTLYLQMNSLRPEDTAVYYCATPYYDSSGLDYWGQGTLVTVSS VL: SYELTQPPSVSVSPGQTARITCSGDALPKRFAYWYQQKAGQAPVLVIYEDNKRPSGIPETLSGSSSGTTATLTISGAQEEDEADYYCYSTDNTGGLWVFGGGTKLTVLG | 5.2 fold | 33 fold | 6 | 100 nM | 0.2 nM | 5040 pM | 900 pM | 1720 pM | no binding | 130 fold | 0.0095 nM | 3.4e-05 s⁻¹ | 3.7e+06 M⁻¹ s⁻¹ | 24 | 40 fold | 966 fold | 35 | 523 fold | 15 fold | – | –
XPA.92.099 (antibody, V domains shown, Tested as purified full-length human IgG; also called mAb99; clone 99) VH: QVQLVESGGGLVKPGRSLRLSCAASGFTFNRYAMSWVRQAPGKGLEWVAMISFDGGNQYYTDSVSGRFTISRDNSKTTLFLQMDSLRTEDTAVYYCVRSPAGDWVAYFDYWGQGTLVTVSS VL: DIQMTQSPSSLSASIGDRVTIPCQASEDISNHLSWYQQKPGKAPKPLIFDASDLETGVPSRFSGSGSGTDFALTISSLRPDDFATYYCHQYHDYPSYTFGHGTKLEIKR | 2.4 fold | 22 fold | 9 | – | 0.09 nM | 3050 pM | 463 pM | – | – | 54 fold | 0.044 nM | 0.00024 s⁻¹ | 5.5e+06 M⁻¹ s⁻¹ | 21 | 24 fold | 495 fold | 17 | 293 fold | 17 fold | – | binding result (Rat IL-2 [11]): no binding (tested: IL-2 injected from 30 nM to 1 nM); binding result (Mouse IL-2 [12]): no binding (tested: IL-2 injected from 30 nM to 1 nM)
XPA.92.041 (antibody, V domains shown, Tested as purified full-length human IgG) VH: EVQLVQSGAEVKKPGESLKISCKGSGYNFDTYWIGWVRQMPGRGLEWMGTIYPADSDTRYSPSFQGQVTTSADKSISTAYLQWGSLRASDTAMYYCARFSSSAYDIWGQGTMVTVSS VL: SYELTQPPSVSVSPGQTARITCSGDALPRQFAYWYQQKPGQAPVLVIYKDTERPSGIPERFSGSSSGTTVTLTISGVQAEDEADYYCQSADSSGTYHVFGGGTQLTVLG | 3.9 fold | 35 fold | 9 | 40 nM | 0.5 nM | 4520 pM | 1150 pM | 1350 pM | no binding | 58 fold | 0.058 nM | 0.00032 s⁻¹ | 5.6e+06 M⁻¹ s⁻¹ | 35 | 35 fold | 1230 fold | 34 | 404 fold | 12 fold | 1 nM | binding result [14]: no binding
XPA.92.042 (antibody, V domains shown, Tested as purified full-length human IgG) VH: EVQLVQSGTEVKKAGDSLKISCKGSGYNFDTYWIGWVRQMPGRGLEWMGTIYPADSDTRYSPSFQGQVTMSADKSISTAYLQWGSLRASDTAMYYCARFSSSAYDIWGQGTMVTVSS VL: SYELTQPPSVSVSPGQTARITCSGDALPRKFAYWYQQKSGQAPVLVIYQDTKRPSGIPERFSGSSSGTTVTLTISDVQAEDDADYYCQSADRSDSYVFGAGTKLTVLG | 5 fold | 52 fold | 10 | 10 nM | 0.6 nM | 5120 pM | 1700 pM | 1660 pM | no binding | 156 fold | 0.028 nM | 0.00025 s⁻¹ | 8.9e+06 M⁻¹ s⁻¹ | 45 | 41 fold | 1860 fold | 57 | 793 fold | 14 fold | 6 nM | binding result [14]: no binding
